Measurements published in article doi:10.1101/365775 (bioRxiv, 2018).

Molecular target: the molecule itself
Experiment: SEC

B1: Sec18_(His8) (natural protein, yeast, UniProt P18759 1-758, looked up)
chain: MFKIPGFGKAAANHTPPDMTNMDTRTRHLKVSNCPNNSYALANVAAVSPNDFPNNIYIIIDNLFVFTTRHSNDIPPGTIGFNGNQRTWGGWSLNQDVQAKAFDLFKYSGKQSYLGSIDIDISFRARGKAVSTVFDQDELAKQFVRCYESQIFSPTQYLIMEFQGHFFDLKIRNVQAIDLGDIEPTSAVATGIETKGILTKQTQINFFKGRDGLVNLKSSNSLRPRSNAVIRPDFKFEDLGVGGLDKEFTKIFRRAFASRIFPPSVIEKLGISHVKGLLLYGPPGTGKTLIARKIGTMLNAKEPKIVNGPEILSKYVGSSEENIRNLFKDAEAEYRAKGEESSLHIIIFDELDSVFKQRGSRGDGTGVGDNVVNQLLAKMDGVDQLNNILVIGMTNRKDLIDSALLRPGRFEVQVEIHLPDEKGRLQIFDIQTKKMRENNMMSDDVNLAELAALTKNFSGAEIEGLVKSASSFAINKTVNIGKGATKLNTKDIAKLKVTREDFLNALNDVTPAFGISEEDLKTCVEGGMMLYSERVNSILKNGARYVRQVRESDKSRLVSLLIHGPAGSGKTALAAEIALKSGFPFIRLISPNELSGMSESAKIAYIDNTFRDAYKSPLNILVIDSLETLVDWVPIGPRFSNNILQMLKVALKRKPPQDRRLLIMTTTSAYSVLQQMDILSCFDNEIAVPNMTNLDELNNVMIESNFLDDAGRVKVINELSRSCPNFNVGIKKTLTNIETARHDEDPVNELVELMTQSA
B1 was tested, and the “stoichiometry N” value was 6.
